System: CC(=O)Oc1ccc([N+](=O)[O-])cc1
Assay: purified protein
Conditions: 100 mM sodium acetate pH 6.0, 30°C

HP0310 (Helicobacter pylori 26695)
Km: 180 ± 50 µM | Vmax: 37400 µM/min | kcat: 20.1 ± 0.917 s⁻¹ | kcat/Km: 112000 M⁻¹ s⁻¹

Source: PMC3688963, “Biochemical Characterization of Hypothetical Proteins from Helicobacter pylori” (PLoS ONE, 2013)
